Data on two molecules can be found in US20140072613A1 (published 2014).

Among the targets are Rsk2(h) (human, UniProt P51812 1-740); Met(h) (human, UniProt P08581 956-1390, limits assumed); Mnk2(h) (human, UniProt Q9HBH9 1-465, limits assumed); FGFR1(V561M)(h) (human, UniProt P11362 456-765, limits assumed); TrkB(h) (human, UniProt Q16620 455-822, limits assumed); IR(h), activated (human, UniProt P06213 1005-1310, limits assumed); MSK2(h) (human, UniProt O75676 1-772, limits assumed); Lyn(h) (human, UniProt P07948 1-512).

Assay in all cases: cell-based or functional assay
The target in a further assay is T1, TBK1(h) (human, UniProt Q9UHD2 1-729).
T1 sequence (looked up): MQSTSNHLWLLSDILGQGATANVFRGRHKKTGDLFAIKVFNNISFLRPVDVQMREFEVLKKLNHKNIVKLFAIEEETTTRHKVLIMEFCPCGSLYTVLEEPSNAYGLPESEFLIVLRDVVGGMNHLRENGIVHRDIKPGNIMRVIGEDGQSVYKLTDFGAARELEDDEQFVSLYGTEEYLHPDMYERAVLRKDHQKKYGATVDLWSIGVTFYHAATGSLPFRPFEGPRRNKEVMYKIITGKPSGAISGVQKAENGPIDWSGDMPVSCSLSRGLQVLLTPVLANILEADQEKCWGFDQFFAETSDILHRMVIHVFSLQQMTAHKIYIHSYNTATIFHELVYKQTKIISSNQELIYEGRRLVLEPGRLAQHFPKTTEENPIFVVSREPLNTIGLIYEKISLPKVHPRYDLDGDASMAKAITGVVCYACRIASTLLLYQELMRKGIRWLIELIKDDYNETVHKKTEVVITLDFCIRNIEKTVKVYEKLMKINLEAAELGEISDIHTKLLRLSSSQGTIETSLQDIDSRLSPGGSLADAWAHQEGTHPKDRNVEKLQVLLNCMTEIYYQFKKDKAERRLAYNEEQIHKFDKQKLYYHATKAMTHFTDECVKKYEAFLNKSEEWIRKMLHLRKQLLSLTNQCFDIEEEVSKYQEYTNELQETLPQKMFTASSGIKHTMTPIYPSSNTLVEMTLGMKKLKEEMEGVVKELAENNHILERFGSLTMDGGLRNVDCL

The target of another assay is T2, TAO2(h) (human, UniProt Q9UL54 1-314, limits assumed).
T2 sequence (looked up): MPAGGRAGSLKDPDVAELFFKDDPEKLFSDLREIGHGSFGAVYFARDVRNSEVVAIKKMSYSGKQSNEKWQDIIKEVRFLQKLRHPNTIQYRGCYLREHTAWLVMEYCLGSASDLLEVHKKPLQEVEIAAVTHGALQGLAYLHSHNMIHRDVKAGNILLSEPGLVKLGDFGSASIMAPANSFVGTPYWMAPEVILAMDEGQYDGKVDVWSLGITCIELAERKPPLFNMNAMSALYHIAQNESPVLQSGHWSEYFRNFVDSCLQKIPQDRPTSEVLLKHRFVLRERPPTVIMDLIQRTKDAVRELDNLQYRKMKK

A further assay addresses T3, MKK6(h) (human, UniProt P52564 1-334).
T3 sequence (looked up): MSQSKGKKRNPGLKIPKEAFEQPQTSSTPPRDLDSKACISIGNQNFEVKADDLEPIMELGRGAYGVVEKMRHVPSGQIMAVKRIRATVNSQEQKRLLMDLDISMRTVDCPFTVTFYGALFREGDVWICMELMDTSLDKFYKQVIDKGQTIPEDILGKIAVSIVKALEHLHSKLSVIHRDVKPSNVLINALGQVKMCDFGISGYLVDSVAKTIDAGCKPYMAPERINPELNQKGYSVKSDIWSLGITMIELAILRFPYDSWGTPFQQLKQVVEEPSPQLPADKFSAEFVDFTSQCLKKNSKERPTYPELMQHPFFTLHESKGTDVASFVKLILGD

The target in another assay is T4, CHK1(h) (human, UniProt O14757 1-476).
T4 sequence (looked up): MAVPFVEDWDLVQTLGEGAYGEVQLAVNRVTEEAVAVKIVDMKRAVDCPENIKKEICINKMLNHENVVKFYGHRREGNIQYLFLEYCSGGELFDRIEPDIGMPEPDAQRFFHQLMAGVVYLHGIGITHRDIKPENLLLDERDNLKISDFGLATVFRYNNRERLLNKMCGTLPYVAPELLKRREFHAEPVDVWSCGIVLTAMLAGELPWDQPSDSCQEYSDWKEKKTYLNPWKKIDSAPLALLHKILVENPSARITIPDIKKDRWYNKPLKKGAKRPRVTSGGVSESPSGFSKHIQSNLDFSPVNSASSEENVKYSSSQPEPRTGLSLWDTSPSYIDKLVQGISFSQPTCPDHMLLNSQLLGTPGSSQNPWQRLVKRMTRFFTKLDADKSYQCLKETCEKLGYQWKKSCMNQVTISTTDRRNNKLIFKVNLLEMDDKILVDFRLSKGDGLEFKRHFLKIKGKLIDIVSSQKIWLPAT

Another assay addresses T5, Ret(h) (human, UniProt P07949 658-1114, limits assumed).
T5 sequence (looked up): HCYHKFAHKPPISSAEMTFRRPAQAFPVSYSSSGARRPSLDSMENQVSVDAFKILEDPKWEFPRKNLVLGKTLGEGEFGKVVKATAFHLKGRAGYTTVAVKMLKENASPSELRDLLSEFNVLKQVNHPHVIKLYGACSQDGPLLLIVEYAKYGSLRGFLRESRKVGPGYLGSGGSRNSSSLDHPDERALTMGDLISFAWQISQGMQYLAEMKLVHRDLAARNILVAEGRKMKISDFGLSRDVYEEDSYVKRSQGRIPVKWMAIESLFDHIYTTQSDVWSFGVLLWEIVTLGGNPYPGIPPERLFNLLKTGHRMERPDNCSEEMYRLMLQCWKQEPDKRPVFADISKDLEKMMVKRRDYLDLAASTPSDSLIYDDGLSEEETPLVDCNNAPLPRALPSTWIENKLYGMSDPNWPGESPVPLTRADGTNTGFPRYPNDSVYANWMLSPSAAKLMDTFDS

Chain of Mnk2(h) (Q9HBH9 whole entry): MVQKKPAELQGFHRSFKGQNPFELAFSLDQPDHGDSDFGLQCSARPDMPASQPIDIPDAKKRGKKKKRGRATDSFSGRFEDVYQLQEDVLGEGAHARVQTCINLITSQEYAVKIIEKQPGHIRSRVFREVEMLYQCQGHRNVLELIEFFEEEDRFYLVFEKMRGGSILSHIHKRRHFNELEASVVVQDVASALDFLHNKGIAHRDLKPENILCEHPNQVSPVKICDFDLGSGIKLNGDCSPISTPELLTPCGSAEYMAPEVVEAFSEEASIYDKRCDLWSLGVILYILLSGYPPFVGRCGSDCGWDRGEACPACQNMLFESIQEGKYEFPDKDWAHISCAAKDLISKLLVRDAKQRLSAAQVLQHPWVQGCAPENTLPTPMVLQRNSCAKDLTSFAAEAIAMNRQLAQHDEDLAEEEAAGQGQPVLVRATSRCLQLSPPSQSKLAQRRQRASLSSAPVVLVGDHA
Chain of FGFR1(V561M)(h) (P11362 456-765 V561M limits assumed): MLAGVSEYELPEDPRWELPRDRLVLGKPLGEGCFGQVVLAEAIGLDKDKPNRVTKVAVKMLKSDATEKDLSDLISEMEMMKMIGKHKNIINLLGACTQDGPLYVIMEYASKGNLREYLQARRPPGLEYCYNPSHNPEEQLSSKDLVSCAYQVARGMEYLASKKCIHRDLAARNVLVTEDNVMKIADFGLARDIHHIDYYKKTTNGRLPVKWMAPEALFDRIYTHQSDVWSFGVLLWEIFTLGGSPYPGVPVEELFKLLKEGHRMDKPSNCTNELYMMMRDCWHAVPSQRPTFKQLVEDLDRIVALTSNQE
Chain of Met(h) (P08581 956-1390 limits assumed): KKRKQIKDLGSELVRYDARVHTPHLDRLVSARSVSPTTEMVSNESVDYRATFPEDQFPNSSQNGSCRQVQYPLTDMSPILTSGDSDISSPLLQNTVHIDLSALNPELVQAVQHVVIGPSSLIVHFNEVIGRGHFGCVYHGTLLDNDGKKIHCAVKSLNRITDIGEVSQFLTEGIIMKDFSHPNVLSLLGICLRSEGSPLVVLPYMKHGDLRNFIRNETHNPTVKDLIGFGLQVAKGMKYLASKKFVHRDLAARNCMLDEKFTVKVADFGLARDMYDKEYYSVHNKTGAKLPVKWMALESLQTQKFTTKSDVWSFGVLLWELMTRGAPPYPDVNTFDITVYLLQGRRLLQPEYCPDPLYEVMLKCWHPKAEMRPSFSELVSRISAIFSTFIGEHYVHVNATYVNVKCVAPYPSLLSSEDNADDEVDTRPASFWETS
Chain of Lyn(h) (P07948 whole entry): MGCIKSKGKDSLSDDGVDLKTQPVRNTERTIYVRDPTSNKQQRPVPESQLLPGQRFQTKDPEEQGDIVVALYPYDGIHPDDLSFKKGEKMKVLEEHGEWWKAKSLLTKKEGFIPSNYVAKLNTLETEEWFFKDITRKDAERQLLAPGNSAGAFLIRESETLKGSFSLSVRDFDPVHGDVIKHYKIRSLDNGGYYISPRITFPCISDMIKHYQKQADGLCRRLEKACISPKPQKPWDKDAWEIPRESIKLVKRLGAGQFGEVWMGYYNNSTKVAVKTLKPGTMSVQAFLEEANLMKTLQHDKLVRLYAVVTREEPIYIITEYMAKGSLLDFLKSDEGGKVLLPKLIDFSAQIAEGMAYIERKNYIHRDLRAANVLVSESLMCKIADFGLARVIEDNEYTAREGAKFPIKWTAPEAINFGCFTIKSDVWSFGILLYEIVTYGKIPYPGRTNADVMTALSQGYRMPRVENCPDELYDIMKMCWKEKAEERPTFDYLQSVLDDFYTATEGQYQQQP
Chain of TrkB(h) (Q16620 455-822 limits assumed): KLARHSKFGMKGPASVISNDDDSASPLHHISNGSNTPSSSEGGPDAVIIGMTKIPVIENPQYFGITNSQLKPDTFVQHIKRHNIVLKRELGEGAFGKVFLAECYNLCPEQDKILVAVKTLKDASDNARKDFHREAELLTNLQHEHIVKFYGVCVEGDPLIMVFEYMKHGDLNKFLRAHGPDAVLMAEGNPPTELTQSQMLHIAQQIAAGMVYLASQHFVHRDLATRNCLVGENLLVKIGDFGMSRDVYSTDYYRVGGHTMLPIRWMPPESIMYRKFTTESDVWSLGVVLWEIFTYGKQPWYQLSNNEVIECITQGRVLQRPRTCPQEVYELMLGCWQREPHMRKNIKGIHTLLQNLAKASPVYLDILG
Chain of IR(h), activated (P06213 1005-1310 limits assumed): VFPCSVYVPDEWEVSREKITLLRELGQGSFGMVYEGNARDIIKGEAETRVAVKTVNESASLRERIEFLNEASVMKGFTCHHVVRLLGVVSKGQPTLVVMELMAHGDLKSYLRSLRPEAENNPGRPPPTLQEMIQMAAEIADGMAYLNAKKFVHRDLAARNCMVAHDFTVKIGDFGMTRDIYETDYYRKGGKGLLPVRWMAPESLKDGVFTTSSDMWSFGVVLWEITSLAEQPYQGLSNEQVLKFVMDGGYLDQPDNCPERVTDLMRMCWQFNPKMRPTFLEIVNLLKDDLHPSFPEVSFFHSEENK
Chain of Rsk2(h) (P51812 whole entry): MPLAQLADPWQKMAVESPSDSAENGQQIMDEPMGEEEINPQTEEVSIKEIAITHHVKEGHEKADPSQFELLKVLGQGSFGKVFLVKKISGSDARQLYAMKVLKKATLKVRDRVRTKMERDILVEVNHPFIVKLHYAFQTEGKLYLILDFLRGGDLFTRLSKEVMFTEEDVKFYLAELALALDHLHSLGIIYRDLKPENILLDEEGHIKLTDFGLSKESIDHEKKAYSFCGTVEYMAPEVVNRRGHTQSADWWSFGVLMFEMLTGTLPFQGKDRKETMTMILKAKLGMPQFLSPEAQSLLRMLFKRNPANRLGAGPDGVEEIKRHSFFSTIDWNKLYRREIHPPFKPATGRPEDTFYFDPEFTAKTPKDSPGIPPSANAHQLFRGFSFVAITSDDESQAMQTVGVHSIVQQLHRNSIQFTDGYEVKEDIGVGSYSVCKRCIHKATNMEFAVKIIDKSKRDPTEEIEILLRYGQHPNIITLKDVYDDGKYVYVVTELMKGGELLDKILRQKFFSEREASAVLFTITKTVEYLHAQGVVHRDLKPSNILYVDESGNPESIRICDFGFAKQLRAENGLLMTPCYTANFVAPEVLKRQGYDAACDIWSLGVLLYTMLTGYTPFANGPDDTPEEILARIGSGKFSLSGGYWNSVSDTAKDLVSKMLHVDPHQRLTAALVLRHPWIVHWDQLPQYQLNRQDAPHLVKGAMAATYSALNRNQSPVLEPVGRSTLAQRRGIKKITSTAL
Chain of MSK2(h) (O75676 whole entry): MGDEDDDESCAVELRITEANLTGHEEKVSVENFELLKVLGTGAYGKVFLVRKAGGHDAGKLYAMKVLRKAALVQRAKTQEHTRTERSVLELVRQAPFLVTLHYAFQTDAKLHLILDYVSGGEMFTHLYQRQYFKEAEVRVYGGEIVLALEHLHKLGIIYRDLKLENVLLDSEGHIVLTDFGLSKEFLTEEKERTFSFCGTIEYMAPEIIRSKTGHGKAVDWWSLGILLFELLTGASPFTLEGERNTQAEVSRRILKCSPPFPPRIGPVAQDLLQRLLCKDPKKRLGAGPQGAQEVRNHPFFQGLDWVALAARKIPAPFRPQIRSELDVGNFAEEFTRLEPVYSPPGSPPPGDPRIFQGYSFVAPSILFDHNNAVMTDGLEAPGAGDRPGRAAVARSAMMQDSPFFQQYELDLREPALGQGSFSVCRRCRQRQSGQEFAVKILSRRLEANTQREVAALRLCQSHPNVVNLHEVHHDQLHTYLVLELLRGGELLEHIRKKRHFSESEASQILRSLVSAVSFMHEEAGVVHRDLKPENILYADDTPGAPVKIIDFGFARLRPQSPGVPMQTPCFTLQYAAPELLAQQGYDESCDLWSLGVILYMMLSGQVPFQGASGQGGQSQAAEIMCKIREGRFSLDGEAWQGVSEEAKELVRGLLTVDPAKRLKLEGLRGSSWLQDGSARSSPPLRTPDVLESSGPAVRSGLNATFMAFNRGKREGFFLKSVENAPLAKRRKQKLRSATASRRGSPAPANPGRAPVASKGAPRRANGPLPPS

B1: MMI-0300 (peptide)
peptide: FAKLAARLYRKALARQLGVAA
On to B1, for which the “% activity, 100 µM” value with Rsk2(h) stood at 51%; with TBK1(h), 37%; in the assay with TAO2(h), 70%; with Met(h), 65%; with Mnk2(h), 89%; with FGFR1(V561M)(h), 74%. For the same molecule, the “% activity, 100 µM” value was 5% with TrkB(h); 79% in the assay with IR(h), activated; 48% in the assay with MKK6(h); 56% with MSK2(h); 91% with CHK1(h); 140% with Ret(h). For the same molecule, in the assay with Lyn(h), the “% activity, 100 µM” value was found to be 69%.

B2: MMI-0400 (peptide)
peptide: KAFAKLAARLYRKALARQLGVAA
Turning to B2, the “% activity, 100 µM” value was determined as 38% in the assay with Rsk2(h); 39% with TBK1(h); 74% with TAO2(h); 62% with Met(h); 86% with Mnk2(h); 74% in the assay with FGFR1(V561M)(h). For the same molecule, the “% activity, 100 µM” value with TrkB(h) worked out at 8%; with IR(h), activated, 59%; in the assay with MKK6(h), 44%; in the assay with MSK2(h), 52%; with CHK1(h) it was 87%; with Ret(h), 145%. Besides, in the assay with Lyn(h), the “% activity, 100 µM” value worked out at 3%.
